T1: human CD70, full length, on CHO cells (CHO-human CD70-B07) (human, UniProt P32970 1-193)
T1 construct: whole, on cells; Stably transfected CHO cells; also called CHO-CD70
T1 sequence (looked up): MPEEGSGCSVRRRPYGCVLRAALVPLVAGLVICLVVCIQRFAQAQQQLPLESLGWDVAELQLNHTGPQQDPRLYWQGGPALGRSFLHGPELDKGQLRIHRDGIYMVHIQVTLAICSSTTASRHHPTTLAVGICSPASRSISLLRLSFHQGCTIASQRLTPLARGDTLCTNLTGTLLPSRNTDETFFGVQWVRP

T2: recombinant trimeric protein of human CD70 extracellular region (human CD70 mIgG Fc (knob) / mouse IgG Fc … (human, UniProt P01863 98-330 = IgG part))
T2 construct: The ELISA and Octet texts say only 'recombinant CD70 protein' / 'CM352 antigen'; also called recombinant human CD70 protein; recombinant CD70 protein
T2 chain 1: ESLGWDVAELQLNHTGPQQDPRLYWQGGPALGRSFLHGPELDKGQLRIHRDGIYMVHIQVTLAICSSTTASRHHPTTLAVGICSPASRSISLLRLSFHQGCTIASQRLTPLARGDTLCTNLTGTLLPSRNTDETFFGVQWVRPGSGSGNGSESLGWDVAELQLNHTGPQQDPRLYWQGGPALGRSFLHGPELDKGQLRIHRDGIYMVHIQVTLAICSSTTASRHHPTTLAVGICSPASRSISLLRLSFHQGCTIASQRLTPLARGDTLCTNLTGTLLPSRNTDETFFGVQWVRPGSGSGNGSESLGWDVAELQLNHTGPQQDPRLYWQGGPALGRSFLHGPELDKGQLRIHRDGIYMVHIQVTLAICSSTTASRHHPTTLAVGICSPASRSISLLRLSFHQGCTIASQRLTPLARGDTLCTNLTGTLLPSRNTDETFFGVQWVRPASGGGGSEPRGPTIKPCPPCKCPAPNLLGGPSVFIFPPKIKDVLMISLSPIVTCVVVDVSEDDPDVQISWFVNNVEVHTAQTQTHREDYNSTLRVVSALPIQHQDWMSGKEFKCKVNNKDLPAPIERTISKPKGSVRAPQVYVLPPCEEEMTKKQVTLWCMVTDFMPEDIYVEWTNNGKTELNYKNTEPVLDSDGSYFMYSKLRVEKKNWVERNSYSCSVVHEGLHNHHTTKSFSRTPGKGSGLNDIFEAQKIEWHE
T2 chain 2: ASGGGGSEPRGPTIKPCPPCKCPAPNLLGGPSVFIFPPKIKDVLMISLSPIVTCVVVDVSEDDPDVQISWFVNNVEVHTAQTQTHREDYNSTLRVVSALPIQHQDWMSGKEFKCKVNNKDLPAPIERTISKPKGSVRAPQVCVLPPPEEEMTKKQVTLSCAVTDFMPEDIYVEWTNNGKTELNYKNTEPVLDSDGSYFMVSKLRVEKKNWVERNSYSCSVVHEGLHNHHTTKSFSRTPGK


Tests used:
[1] = biological target: T1, human CD70, full length, on CHO cells …; assay: flow cytometry, hybridoma supernatant, cell surface human CD70
[2] = biological target: T2, recombinant trimeric protein of human …; assay: ELISA binding, hybridoma supernatant, human CD70
[3] = biological target: T2, recombinant trimeric protein of human …; assay: competition ELISA, chimeric IgG titrated, CD27 coated, biotin-CD70, human pair
Description: The recombinant CD27 protein was coated at 1 μg/mL in a 96-well microtiter plate and incubated overnight at 4° C. The next day, the plate was washed 3 times with PBS, added with 200 μL of 2% defatted dry milk/PBS, blocked at room temperature for 2 hours, and washed once with PBS. The purified chimeric antibody was divided to 12 concentration gradients starting at 100 nM and diluted in a 1:3 gradient. […] of the antibody was added per well and incubated at room temperature for 30 minutes. […] The plate was washed 3 times with PBST and PBS and dried by spinning. A secondary antibody Streptavidin-coupled horseradish peroxidase SA-HRP (BD bioscience, cat. No: 6222697) was diluted with 0.5% BSA in a ratio of 1:8000. 100 μL of the diluent was added into each well and incubated at room temperature for 30 minutes. The plate was washed 3 times with PBST and PBS and dried by spinning. 100 μl of color development solution (TMB solution, Sigma, Cat. No: T2885) was added into each well and protected from light at 37° C. for reaction. After the substrate developed moderately, 50 μl of H₂SO₄ was added into each well to terminate the reaction. The OD450 nm was determined by using an enzyme-linked detector within 30 minutes, and the data was collected. The results were calculated by using Graph Pad Prism 5 software.

[4] = biological target: T1, human CD70, full length, on CHO cells …; assay: flow cytometry, chimeric IgG on CHO-human CD70 cells
Description: Different cells in logarithmic growth phase were taken, blocked with 3% BSA for 30 minutes, and plated to a 96-well U-plate at 5×10⁴ cells/100 μL. The centrifuge was performed at 1100 rpm for 3 minutes. The supernatant was discarded and the cells were gently tapped to be loosening. 50 μL of gradient diluted antibody was added (antibody concentration: from 30 μg/mL, 3-fold dilution for 5 gradients) per well, and incubated at 4° C. for 1 hour. After incubation, 180 μL of 0.5% BSA was added to each well for washing 3 times. 30 μL/well of secondary antibody AlexaFluro647 anti-human IgG (Jackson Immuno Research, Cat. No: 109-606-170) was added and incubated at 4° C. for 45 minutes. At the end of the incubation, each well was washed 3 times with 180 μL of 0.5% BSA and finally resuspended in 50 μL of PBS for iQue (Intellicyt, USA) assay.

Binder	binding result [1]	binding result [2]	IC50 [3]	EC50 [4]
10C19-D11 hybridoma antibody (antibody, V domains shown, Mouse antibody in hybridoma culture supernatant) VH: QVQLQQSGPGLVQPSQSLSITCTVSGFSLTTYAVHWFRQSPGQGLEWLGVIWSTGITDFNAAFISRLNINKDSSKSQIFFKMISLQPNDTAIYYCGRNSYYGNLYAMDYWGQGTSVTVSS VL: DIVLTQSPTSLAVSLGQRATISCRASKSVSASGYNFMHWYQQKPGQPPKLLIYLASNLESGVPARFSGSGSETDFTLNIHPVEEGDAATYYCQHSRELPLTFGAGTKLELK	binds	binds		
14C12 chimeric antibody (antibody, V domains shown) VH: EVQLQQSGPELVKPGASVKMSCKASGYTFTDYVIHWVKQKPGQGLEWIGYLHPYNDDTKYNEKFKGKATLTSDKSSSTAYMELSSLTSEDSAVYYCARRGYYDYAWFADWGQGTLVTVSA VL: DIVLTQSPASLAVSLGQRATISCRASKSVSASGYTWIHWYQQKPRQAPKLLIYLASNLESGVPARFSGSGSGTDFTLNIHPVEEEDAATYYCQHSRELPPTFGGGTKLEIK			0.1 nM	15 nM
1H21-D5 hybridoma antibody (antibody, V domains shown, Mouse antibody in hybridoma culture supernatant) VH: QVQLKQSGPGLVQPSQSLSITCTVSGFSLTSYGIHWVRQSPGKGLEWLGVIWSGGSTDFNAAFISRLSISKDNSKSQVFFKVISLQANDTAIYYCGRNSYYGNLYAMDYWGQGTSVTVSS VL: DIVLTQSPTSLAVSLGQRATISCRASKSVSASGYSFMHWYQQKPGQPPKLLIYLASNLESGVPARFSGSGSGTDFTLNIHPVEEEDAATYYCQHSRELPLTFGAGTKLELK	binds	binds		
36E7-D6 hybridoma antibody (antibody, V domains shown, Mouse antibody in hybridoma culture supernatant) VH: QVQLKQSGPGLVQPSQSLSITCTVSDFSLTIFGVHWVRQSPGKGLEWLGVIWRDGSTDYNAALMSRLNITKDNSKSQVFFKMNSLQTDDTAIYYCAKNRRYDYAWFPYWGQGTLVSVSA VL: DIVLTQSPASLAVSLGQRATISCRASKSVSASGYSFLHWYQQKPGQPPKLLIYLTSNLESGVPARFSGSGSGTDFTLNIHPVEEEDAATYYCQHSRDFPPTFGAGTKLELK	binds	binds		
27A3 chimeric antibody (antibody, V domains shown) VH: EVQLQESGPGLVQPSQSLSITCTVSGFSLTTYAVHWVRQSPGKGLEWLGVIWSTGITDYNADFISRLSISKDNSKSQVFFKMDSLQSDDTAIYFCARNHYYGNLNAMDYWGQGTSVTVSS VL: DIVLTQSPASLAVSLGQRATISCRASKSVSTSGYSFMHWYQQKPGQPPKLLIYLASNLESGVPARFSGSGSGTDFTLNIHPVEEEDAATYYCQHSRELPYTFGGGTKLEIK			0.08 nM	4.07 nM
32D1 chimeric antibody (antibody, V domains shown) VH: EVQLQQSGPELVKPGASLKMSCKASGYTFTDYVIHWVKQKPGQGLEWIGYLHPYNDDTKYNEKFKGKATLTSDKSSSTAYMELNSLTSEDSAVYYCARRGYYDYAWFADWGQGTLVTVSA VL: DIVLTQSPASLAVSLGQRATISCKASKSVSASGYTWMHWYQQKPGQAPKLLIYLASNLESGVPARFSGSGSGTDFTLNIHPVEEEDAATYYCQHSRELPPTFGGGTKLEIK			0.1 nM	12.1 nM
23A11 chimeric antibody (antibody, V domains shown) VH: QVQLQQSGPGLVQPSQSLSITCTVSGFSLTTYAVHWVRQSPGKGLEWLGVIWSVGSTDYNAAFISRLSISKDNSKSQVFFKMNSLQADDTAIYYCARNIYYGNVYAMDYWGQGTSVTVSS VL: DIVLTQSPASLAVSLGQRATISCRASKSVDASGYSFMHWYQQKAGQPPKLLIYLASNLESGVPARFSGRGSGTDFTLNIHPVEEGDAATYYCQHSRELPLTFGAGTKLEIK			0.07 nM	11.9 nM
42H19-G4 hybridoma antibody (antibody, V domains shown, Mouse antibody in hybridoma culture supernatant) VH: QVQLKQSGPGPVQPSQSLSITCTVSDFSLTIFGIHWVRQSPGKGLEWLGVIWRDGSTDYNVALMSRLNITKDNSKSQVFFKMNSLQTDDTAIYYCAKNRRYDYAWFPYWGQGTLVSVSA VL: DIVLTQSPASLAVSLGQRATISCRASKSVSASGYSFLHWYQQKPGQPPKLLIYLTSNLESGVPARFSGSGSGTDFTLNIHPVEEEDAATYYCQHSRDFPPTFGAGTKLELK	binds	binds		

Results, then the binder that gave them:

binding result [1]	binding result [2]	IC50 [3]	EC50 [4]	Binder
binds	binds			16J15-H3 hybridoma antibody (antibody, V domains shown, Mouse antibody in hybridoma culture supernatant) VH: QVQLKQSGPGLVQPSQSLSITCTVSNFSLSTYGVHWVRQSPGKGLEWLGVIWGGGYTDYNAAFISRLTISKDNSKSQVFFKMNSLQADDTAIYYCARNNYYGNLYAMDYWGQGTSVTVSS VL: DIVLTQSPASLPVSLGQRATISCRANKSVSASGYSFMHWYQQKPGQPPKLLIYLASNLDSGVPARFSGSGSGTDFTLNIHPVEEEDTATYYCQHSREFPLTFGAGTKLELK
		0.12 nM	7.55 nM	12A1 chimeric antibody (antibody, V domains shown) VH: QVQLQQSGPGLVQPSQSLSITCTVSGFSLTTYAVHWVRQSPGKGLEWLGVIWSTGITDYNAAFISRLSISKDNSKSQVFFKMDSLQSDDTAIYFCARNPHYGNLNAMDYWGQGTSVTVSS VL: DIVLTQSPASLAVSLGQRATISCRASKSVSASGYTWMHWYQQKPGQAPKLLIYLASNLESGVPARFSGSGSGTDFTLNIHPVEEEDAATYYCQHSRELPPTFGGGTKLEIK
binds	binds			17A9-G5 hybridoma antibody (antibody, V domains shown, Mouse antibody in hybridoma culture supernatant) VH: QVQLKQSGPGLVQPSQSLSITCTVSGFSLTTYGVHWVRQSPGKGLEWLGVIWSAGITDYNAPFISRLSITKDNSKSQVFFKMNSLQADDTAIYYCARNDYYGNLYAMDYWGQGTSVTVSS VL: DIVLTQSPASLAVSLGQRATISCRANKSVSASGYTFMHWYQQKPGQPPKLLIYLVSNLASGVPARFSGSGSGTDFTLNIHPVEGEDAATYYCQHSREFPLTFGAGTKLELK
		0.11 nM	17.7 nM	2B12 chimeric antibody (antibody, V domains shown) VH: QVQLQQSGPGLVQPSQSLSITCTVSGFSLTTYAVHWVRQSPGKGLEWLGVIWSTGITDYNAAFISRLSISKDNSKSQVFFKMNSLQSDDIAIYYCARNPYYGNLNAMDYWGQGTSVTVSS VL: DIVLTQSPASLAVSLGQRATISCRASKSVDTSGYSFMHWYQQKPGQPPKLLIYLASNLESGVPARFSGSGSGTDFTLNIHPVEEEDAATYYCQHSRELPLTFGAGTKLELK

From US20240247072A1 (KEYMED BIOSCIENCES, published 2024)
